Laboratory results published in the supplement of paper PMC10567573.

B1: CAMK2D (parent)
chain: LLKHPNIVRLHDSISEEGFHYLVF
B2: MLH1 (parent)
chain: YAHQMVRTDSREQKLDAFLQPLSK

Variants of: B1
Experiment: protein stability index of a GFP-peptide fusion (GPS, HEK-293T) (PSI 1-6); higher = more stable
Conditions: c terminus: a fixed tail appended
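Also: lentivirally expressed fusions sorted by FACS into six bins by GFP to DsRed ratio, PSI derived from sequencing read proportions per bin multiplied by bin number.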

Variant	protein stability index
H4V	1.58
H4R	2.6
H4M	3.37
H4K	3.21
H4C	1.66
H4T	1.84
H4W	1.44
H4F	1.88
H4I	2.28
H4G	2.23
H4L	2.79
H4E	2.6
H4S	1.94
H4Y	2.32
H4A	3.37
H4D	1.77
H4Q	1.06
H4P	1.67
N6K	2.36
N6I	1.94
N6P	2.15
N6V	3.01
N6W	2.75
N6F	2.94
N6Y	3.11
N6S	1.39

Variant	protein stability index
N6D	1.76
N6T	3.24
N6E	3.7
N6A	2.22
N6Q	3.46
N6R	2.54
N6H	2.18
N6L	3.32
N6C	2.13
I7N	3.17
I7R	2.02
I7M	3.55
I7E	2.67
I7K	1.56
I7T	2.19
I7W	1.07
I7S	1.89
I7L	2.98
I7Q	2.14
I7F	2.39
I7H	3.65
I7D	1.99
I7C	3.93
I7A	1.95
I7P	1.76
V8R	1.81

Variant	protein stability index
V8Y	2.91
V8E	2.17
V8L	2.21
V8A	2.64
V8P	2.01
V8M	2.59
V8K	2.05
V8D	2.41
V8I	1.87
V8F	1.47
V8W	3.27
V8H	1.8
V8Q	1.94
V8G	2.79
P5G	1.76
P5N	2.58
P5Q	2.6
P5S	2.59
P5V	2.56
P5A	2.2
P5C	2.29
P5M	1.72
P5D	1.97
P5F	2.26
P5H	2.4
P5K	2.42

Variant	protein stability index
P5W	2.57
P5L	3.34
P5Y	1.57
P5T	2.59
P5I	3.47
L10A	2.84
L10F	3.99
L10P	2.49
L10H	2.14
L10C	2.11
L10E	2.5
L10Y	2.95
L10S	1.86
L10G	1.36
L10M	3.69
L10Q	1.7
L10K	2.02
L10V	1.75
L10T	1.43
L10I	2.53
L10R	1.17
L10N	2.25
L10D	1.74
L10W	3.54
L1D	4.59
L1M	2.61

Variant	protein stability index
L1N	2.14
L1Y	1.96
L1S	2.13
L1F	2.89
L1I	3.14
L1E	2.23
L1Q	1.77
L1K	3.1
L1T	1.62
L1V	2.25
L1H	1.51
L1P	1.76
L1C	1.97
L2K	3.35
L2W	3.25
L2M	1.77
L2Q	1.76
L2T	1.94
L2D	2.09
L2C	2.36
L2E	2.04
L2V	2.86
L2I	3.93
L2H	1.44
L2P	1.56
L2N	3.63

Variant	protein stability index
L2S	1.56
L2A	2.92
L2G	2.37
L2Y	1.83
D12A	2.96
D12C	3.3
D12P	2.38
D12Q	1.31
D12H	3.02
D12K	3.1
D12T	2.59
D12S	3
D12G	3.51
D12L	2.47
D12F	4.12
D12N	1.61
D12R	3.07
D12I	2.54
R9Y	2.87
R9K	3.39
R9L	3.22
R9P	2.45
R9W	2.69
R9D	3.18
R9S	2.58
R9M	2.74

Variant	protein stability index
R9H	2.1
R9G	1.79
R9V	1.84
R9N	2.7
R9T	1.68
R9Q	2.17
R9C	3.88
R9A	2.1
R9E	3.23
R9F	1.26
K3M	1.77
K3E	2.16
K3A	2.38
K3T	1.52
K3L	3.21
K3Y	3
K3W	2.83
K3D	2.74
K3H	1.44
K3I	2.71
K3S	1.79
K3R	2.28
K3V	1.78
K3G	2.04
K3F	2.85
K3C	3.78

Variant	protein stability index
K3N	2.22
K3P	2.1
H11Q	2.07
H11K	3.01
H11T	2.52
H11I	2.7
H11N	2.29
H11Y	2.88
H11R	2.79
H11C	2.84
H11L	1.48
H11W	2.62
H11E	2.68
H11V	1.9
H11A	2.57
H11S	1.8
H11F	1.96
H11P	2.42
H11D	2.39

Variants of: B2
Experiment: as above
Conditions: c terminus: a fixed tail appended

Variant	protein stability index
L22T	3.2
L22I	3.13
L22C	2.59
L22Y	2.03
L22A	2.59
L22D	3.38
L22F	2.07
L22M	2.43
L22K	2.98
L22P	2.06
L22G	3.03
L22E	3.02
L22S	3.14
L22N	3.11
L22H	2.45
L22R	3.02
F18E	3.12
F18C	3.22
F18V	3.15
F18Q	3.55
F18W	1.85
F18G	2.79
F18H	3.29

Variant	protein stability index
F18Y	2.27
F18S	3.52
F18L	2.4
F18T	3.36
F18R	3.17
F18D	3.79
F18N	3.15
A17C	2.15
A17I	2.69
A17E	2.98
A17D	3
A17F	1.88
A17M	2.45
A17S	2.57
A17W	2.19
A17Q	2.06
A17K	3.29
A17P	2.66
A17R	2.66
A17N	3.19
A17V	3.02
A17L	1.85
L19R	3.33

Variant	protein stability index
L19W	2.42
L19T	3.02
L19V	2.84
L19E	3.38
L19G	2.12
L19D	3.02
L19N	2.85
L19K	3.16
L19I	2.21
L19H	3.12
L19Q	3.02
L19P	2.55
D16G	2.08
D16L	1.62
D16Y	1.57
D16I	2.16
D16N	1.91
D16A	2.69
D16S	2.1
D16W	3.5
D16V	1.66
D16C	1.99
D16Q	2.46

Variant	protein stability index
D16K	2.63
S23D	3.41
S23T	2.43
S23F	2.4
S23P	2.18
S23E	2.86
S23A	1.99
S23N	2.42
S23Q	2.7
S23H	2.01
S23R	2.45
S23W	2.27
S23G	3.24
L15I	2.17
L15Q	3.77
L15G	3.28
L15H	2.57
L15F	2.2
L15W	2.37
L15N	3.28
L15D	3.25
L15E	3.83
P21H	2.57

Variant	protein stability index
P21Q	2.7
P21V	2.48
P21D	2.84
P21T	2.21
P21M	1.9
P21N	2.4
P21I	2.57
P21K	2.42
P21C	2.2
P21Y	1.71
P21L	2.16
P21W	2.4
P21S	3
K24G	2.48
K24C	2.29
K24L	1.85
K24E	3.28
K24W	2.16
K24D	3.26
K24I	1.95
K24F	1.78
Q20D	3.39
Q20E	2.51

Variant	protein stability index
Q20Y	1.88
Q20M	2.45
Q20I	2.07
Q20H	2.78
Q20A	2.49
Q20R	2.5
Q20W	2.99
Q20F	1.91
Q20L	2.53
Q20C	1.98
Q20V	2.09
K14W	1.86
K14L	1.54
K14I	2.43
K14V	2.57
K14N	2.48
K14Y	1.83
K14F	2
